The target in assay [1] is T1, human calcitonin (a) receptor (human, UniProt P30988 25-474).
T1 sequence (looked up): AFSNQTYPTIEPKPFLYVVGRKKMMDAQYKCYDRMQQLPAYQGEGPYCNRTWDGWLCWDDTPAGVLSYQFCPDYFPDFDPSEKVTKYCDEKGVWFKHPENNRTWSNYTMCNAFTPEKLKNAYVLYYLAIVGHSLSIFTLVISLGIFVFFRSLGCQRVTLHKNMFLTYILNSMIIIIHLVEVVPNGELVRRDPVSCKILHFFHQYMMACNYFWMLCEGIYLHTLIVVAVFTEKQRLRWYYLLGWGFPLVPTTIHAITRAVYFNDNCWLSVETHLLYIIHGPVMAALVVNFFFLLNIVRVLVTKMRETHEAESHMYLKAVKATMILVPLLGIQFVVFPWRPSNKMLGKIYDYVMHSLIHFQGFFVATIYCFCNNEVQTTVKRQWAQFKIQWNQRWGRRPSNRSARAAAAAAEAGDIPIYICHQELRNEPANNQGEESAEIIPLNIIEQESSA
Put plainly: cell-based or functional assay.

Assay [2] deals with T2, human amylin 3(a) receptor (human calcitonin receptor + RAMP-3) (human, UniProt P30988 25-474; O60896 24-148).
T2 sequence (looked up) 1: T1 sequence (looked up)
T2 sequence (looked up) 2: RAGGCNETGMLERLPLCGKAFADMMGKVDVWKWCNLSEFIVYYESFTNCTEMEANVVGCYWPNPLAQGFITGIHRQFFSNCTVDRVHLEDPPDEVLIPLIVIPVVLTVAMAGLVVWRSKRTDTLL
As to the kind of experiment: cell-based or functional assay.

Starred links: 1 amine or outer side, 2 acyl side, 3 side chain; linkers in the order of their positions; H or OH if unused. Positions of bridges follow the written chain, without caps; N, C: chain ends. *: point of attachment. C20 diacid = O=C(O)CCCCCCCCCCCCCCCCCCC(=O)*; γGlu = O=C(O)[C@H](CCC(=O)[*:2])N[*:1]

B1: N-alpha-[(S)-4-Carboxy-4-(19-carboxynonadecanoylamino)butyryl]-[Ser1,Glu14,His17,Pro37]-pramlintide (peptide)
peptide: {C20 diacid-γGlu}-SCNTATCATQRLAEFLHHSSNNFGPILPPTNVGSNTP-NH2
modifications: disulfide 2-7
SMILES: CC[C@H](C)[C@H](NC(=O)[C@@H]1CCCN1C(=O)CNC(=O)[C@H](Cc1ccccc1)NC(=O)[C@H](CC(N)=O)NC(=O)[C@H](CC(N)=O)NC(=O)[C@H](CO)NC(=O)[C@H](CO)NC(=O)[C@H](Cc1c[nH]cn1)NC(=O)[C@H](Cc1c[nH]cn1)NC(=O)[C@H](CC(C)C)NC(=O)[C@H](Cc1ccccc1)NC(=O)[C@H](CCC(=O)O)NC(=O)[C@H](C)NC(=O)[C@H](CC(C)C)NC(=O)[C@H](CCCNC(=N)N)NC(=O)[C@H](CCC(N)=O)NC(=O)[C@@H](NC(=O)[C@H](C)NC(=O)[C@@H]1CSSC[C@H](NC(=O)[C@H](CO)NC(=O)CC[C@H](NC(=O)CCCCCCCCCCCCCCCCCCC(=O)O)C(=O)O)C(=O)N[C@@H](CC(N)=O)C(=O)N[C@@H]([C@@H](C)O)C(=O)N[C@@H](C)C(=O)N[C@@H]([C@@H](C)O)C(=O)N1)[C@@H](C)O)C(=O)N[C@@H](CC(C)C)C(=O)N1CCC[C@H]1C(=O)N1CCC[C@H]1C(=O)N[C@H](C(=O)N[C@@H](CC(N)=O)C(=O)N[C@H](C(=O)NCC(=O)N[C@@H](CO)C(=O)N[C@@H](CC(N)=O)C(=O)N[C@H](C(=O)N1CCC[C@H]1C(N)=O)[C@@H](C)O)C(C)C)[C@@H](C)O
B1: the “CTa receptor human EC50” value in assay [1] stood at 0.0705 nM. For the same molecule, the “Amylin receptor human EC50” value in assay [2] was found to be 0.0625 nM.

B2: N-alpha-[(S)-4-Carboxy-4-(19-carboxynonadecanoylamino)butyryl]-Gly-[Arg1,Glu14,Pro37]-pramlintide (peptide)
peptide: {C20 diacid-γGlu}-GRCNTATCATQRLAEFLVHSSNNFGPILPPTNVGSNTP-NH2
modifications: disulfide 3-8
SMILES: CC[C@H](C)[C@H](NC(=O)[C@@H]1CCCN1C(=O)CNC(=O)[C@H](Cc1ccccc1)NC(=O)[C@H](CC(N)=O)NC(=O)[C@H](CC(N)=O)NC(=O)[C@H](CO)NC(=O)[C@H](CO)NC(=O)[C@H](Cc1c[nH]cn1)NC(=O)[C@@H](NC(=O)[C@H](CC(C)C)NC(=O)[C@H](Cc1ccccc1)NC(=O)[C@H](CCC(=O)O)NC(=O)[C@H](C)NC(=O)[C@H](CC(C)C)NC(=O)[C@H](CCCNC(=N)N)NC(=O)[C@H](CCC(N)=O)NC(=O)[C@@H](NC(=O)[C@H](C)NC(=O)[C@@H]1CSSC[C@H](NC(=O)[C@H](CCCNC(=N)N)NC(=O)CNC(=O)CC[C@H](NC(=O)CCCCCCCCCCCCCCCCCCC(=O)O)C(=O)O)C(=O)N[C@@H](CC(N)=O)C(=O)N[C@@H]([C@@H](C)O)C(=O)N[C@@H](C)C(=O)N[C@@H]([C@@H](C)O)C(=O)N1)[C@@H](C)O)C(C)C)C(=O)N[C@@H](CC(C)C)C(=O)N1CCC[C@H]1C(=O)N1CCC[C@H]1C(=O)N[C@H](C(=O)N[C@@H](CC(N)=O)C(=O)N[C@H](C(=O)NCC(=O)N[C@@H](CO)C(=O)N[C@@H](CC(N)=O)C(=O)N[C@H](C(=O)N1CCC[C@H]1C(N)=O)[C@@H](C)O)C(C)C)[C@@H](C)O
B2: the “CTa receptor human EC50” value in assay [1] was 0.0505 nM. Besides, the “Amylin receptor human EC50” value in assay [2] stood at 0.0495 nM.

B3: N-alpha-[(S)-4-Carboxy-4-(19-carboxynonadecanoylamino)butyryl]-Gly-[Arg1,Glu14,His17,His35]-pramlintide (peptide)
peptide: {C20 diacid-γGlu}-GRCNTATCATQRLAEFLHHSSNNFGPILPPTNVGSHTY-NH2
modifications: disulfide 3-8
SMILES: CC[C@H](C)[C@H](NC(=O)[C@@H]1CCCN1C(=O)CNC(=O)[C@H](Cc1ccccc1)NC(=O)[C@H](CC(N)=O)NC(=O)[C@H](CC(N)=O)NC(=O)[C@H](CO)NC(=O)[C@H](CO)NC(=O)[C@H](Cc1c[nH]cn1)NC(=O)[C@H](Cc1c[nH]cn1)NC(=O)[C@H](CC(C)C)NC(=O)[C@H](Cc1ccccc1)NC(=O)[C@H](CCC(=O)O)NC(=O)[C@H](C)NC(=O)[C@H](CC(C)C)NC(=O)[C@H](CCCNC(=N)N)NC(=O)[C@H](CCC(N)=O)NC(=O)[C@@H](NC(=O)[C@H](C)NC(=O)[C@@H]1CSSC[C@H](NC(=O)[C@H](CCCNC(=N)N)NC(=O)CNC(=O)CC[C@H](NC(=O)CCCCCCCCCCCCCCCCCCC(=O)O)C(=O)O)C(=O)N[C@@H](CC(N)=O)C(=O)N[C@@H]([C@@H](C)O)C(=O)N[C@@H](C)C(=O)N[C@@H]([C@@H](C)O)C(=O)N1)[C@@H](C)O)C(=O)N[C@@H](CC(C)C)C(=O)N1CCC[C@H]1C(=O)N1CCC[C@H]1C(=O)N[C@H](C(=O)N[C@@H](CC(N)=O)C(=O)N[C@H](C(=O)NCC(=O)N[C@@H](CO)C(=O)N[C@@H](Cc1c[nH]cn1)C(=O)N[C@H](C(=O)N[C@@H](Cc1ccc(O)cc1)C(N)=O)[C@@H](C)O)C(C)C)[C@@H](C)O
Take B3: the “CTa receptor human EC50” value in assay [1] amounted to 0.0895 nM. Also, the “Amylin receptor human EC50” value in assay [2] was 0.0675 nM.

B4: N-alpha-[(S)-4-Carboxy-4-(19-carboxynonadecanoylamino)butyryl]-[Gly1,Glu14,His17,His35]-pramlintide (peptide)
peptide: {C20 diacid-γGlu}-GCNTATCATQRLAEFLHHSSNNFGPILPPTNVGSHTY-NH2
modifications: disulfide 2-7
SMILES: CC[C@H](C)[C@H](NC(=O)[C@@H]1CCCN1C(=O)CNC(=O)[C@H](Cc1ccccc1)NC(=O)[C@H](CC(N)=O)NC(=O)[C@H](CC(N)=O)NC(=O)[C@H](CO)NC(=O)[C@H](CO)NC(=O)[C@H](Cc1c[nH]cn1)NC(=O)[C@H](Cc1c[nH]cn1)NC(=O)[C@H](CC(C)C)NC(=O)[C@H](Cc1ccccc1)NC(=O)[C@H](CCC(=O)O)NC(=O)[C@H](C)NC(=O)[C@H](CC(C)C)NC(=O)[C@H](CCCNC(=N)N)NC(=O)[C@H](CCC(N)=O)NC(=O)[C@@H](NC(=O)[C@H](C)NC(=O)[C@@H]1CSSC[C@H](NC(=O)CNC(=O)CC[C@H](NC(=O)CCCCCCCCCCCCCCCCCCC(=O)O)C(=O)O)C(=O)N[C@@H](CC(N)=O)C(=O)N[C@@H]([C@@H](C)O)C(=O)N[C@@H](C)C(=O)N[C@@H]([C@@H](C)O)C(=O)N1)[C@@H](C)O)C(=O)N[C@@H](CC(C)C)C(=O)N1CCC[C@H]1C(=O)N1CCC[C@H]1C(=O)N[C@H](C(=O)N[C@@H](CC(N)=O)C(=O)N[C@H](C(=O)NCC(=O)N[C@@H](CO)C(=O)N[C@@H](Cc1c[nH]cn1)C(=O)N[C@H](C(=O)N[C@@H](Cc1ccc(O)cc1)C(N)=O)[C@@H](C)O)C(C)C)[C@@H](C)O
With B4, the “CTa receptor human EC50” value in assay [1] was 0.161 nM. Moreover, in assay [2], the “Amylin receptor human EC50” value stood at 0.208 nM.

B5: N-alpha-[(S)-4-Carboxy-4-(19-carboxynonadecanoylamino)butyryl]-Gly-[Arg1,Pro37]-pramlintide (peptide)
peptide: {C20 diacid-γGlu}-GRCNTATCATQRLANFLVHSSNNFGPILPPTNVGSNTP-NH2
modifications: disulfide 3-8
SMILES: CC[C@H](C)[C@H](NC(=O)[C@@H]1CCCN1C(=O)CNC(=O)[C@H](Cc1ccccc1)NC(=O)[C@H](CC(N)=O)NC(=O)[C@H](CC(N)=O)NC(=O)[C@H](CO)NC(=O)[C@H](CO)NC(=O)[C@H](Cc1c[nH]cn1)NC(=O)[C@@H](NC(=O)[C@H](CC(C)C)NC(=O)[C@H](Cc1ccccc1)NC(=O)[C@H](CC(N)=O)NC(=O)[C@H](C)NC(=O)[C@H](CC(C)C)NC(=O)[C@H](CCCNC(=N)N)NC(=O)[C@H](CCC(N)=O)NC(=O)[C@@H](NC(=O)[C@H](C)NC(=O)[C@@H]1CSSC[C@H](NC(=O)[C@H](CCCNC(=N)N)NC(=O)CNC(=O)CC[C@H](NC(=O)CCCCCCCCCCCCCCCCCCC(=O)O)C(=O)O)C(=O)N[C@@H](CC(N)=O)C(=O)N[C@@H]([C@@H](C)O)C(=O)N[C@@H](C)C(=O)N[C@@H]([C@@H](C)O)C(=O)N1)[C@@H](C)O)C(C)C)C(=O)N[C@@H](CC(C)C)C(=O)N1CCC[C@H]1C(=O)N1CCC[C@H]1C(=O)N[C@H](C(=O)N[C@@H](CC(N)=O)C(=O)N[C@H](C(=O)NCC(=O)N[C@@H](CO)C(=O)N[C@@H](CC(N)=O)C(=O)N[C@H](C(=O)N1CCC[C@H]1C(N)=O)[C@@H](C)O)C(C)C)[C@@H](C)O
Turning to B5, the “CTa receptor human EC50” value in assay [1] is 0.075 nM. The “Amylin receptor human EC50” value in assay [2] is 0.0525 nM.

B6: N-alpha-[(S)-4-Carboxy-4-(19-carboxynonadecanoylamino)butyryl]-[des1,Glu14,His17,Pro37]-pramlintide (peptide)
peptide: {C20 diacid-γGlu}-CNTATCATQRLAEFLHHSSNNFGPILPPTNVGSNTP-NH2
modifications: disulfide 1-6
SMILES: CC[C@H](C)[C@H](NC(=O)[C@@H]1CCCN1C(=O)CNC(=O)[C@H](Cc1ccccc1)NC(=O)[C@H](CC(N)=O)NC(=O)[C@H](CC(N)=O)NC(=O)[C@H](CO)NC(=O)[C@H](CO)NC(=O)[C@H](Cc1c[nH]cn1)NC(=O)[C@H](Cc1c[nH]cn1)NC(=O)[C@H](CC(C)C)NC(=O)[C@H](Cc1ccccc1)NC(=O)[C@H](CCC(=O)O)NC(=O)[C@H](C)NC(=O)[C@H](CC(C)C)NC(=O)[C@H](CCCNC(=N)N)NC(=O)[C@H](CCC(N)=O)NC(=O)[C@@H](NC(=O)[C@H](C)NC(=O)[C@@H]1CSSC[C@H](NC(=O)CC[C@H](NC(=O)CCCCCCCCCCCCCCCCCCC(=O)O)C(=O)O)C(=O)N[C@@H](CC(N)=O)C(=O)N[C@@H]([C@@H](C)O)C(=O)N[C@@H](C)C(=O)N[C@@H]([C@@H](C)O)C(=O)N1)[C@@H](C)O)C(=O)N[C@@H](CC(C)C)C(=O)N1CCC[C@H]1C(=O)N1CCC[C@H]1C(=O)N[C@H](C(=O)N[C@@H](CC(N)=O)C(=O)N[C@H](C(=O)NCC(=O)N[C@@H](CO)C(=O)N[C@@H](CC(N)=O)C(=O)N[C@H](C(=O)N1CCC[C@H]1C(N)=O)[C@@H](C)O)C(C)C)[C@@H](C)O
Consider B6, for which, in assay [1], the “CTa receptor human EC50” value was 0.106 nM. In addition, in assay [2], the “Amylin receptor human EC50” value stood at 0.0795 nM.

Source of the values: US20130005646A1 (Novo Nordisk, published 2013).
